Data reported in patent US20090239795A1.

Target: rat GLP-1 receptor (rat) (UniProt P32301)
Test: cell-based or functional assay

| Substance | Potency (nM), cAMP accumulation in CHO-GLP-1R cells |
| --- | --- |
| GLP-1(7-37,A8G,K34A) (PEAPTD)2 (SEQ ID NO: 5) mTf fusion protein (from UniProt P01275 98-128) (ligand) | 1.3 nM |
| Exendin-4(1-31) (PEAPTD)2 mTf fusion protein (ligand) | 0.33 nM |
| Exendin-4(1-30) (PEAPTD)2 mTf fusion protein (ligand) | 0.85 nM |
